Numbering of substitutions follows the chain as printed.
B1: 219R45-MB-21R79: anti-VEGF/anti-DLL4 monovalent/bispecific antibody, heavy chains SEQ ID NO:7 and 6, light chains SEQ ID NO:8 (antibody)
heavy 1: QVQLVQSGAEVKKPGASVKVSCKASGYTFTNYWMHWVRQAPGQGLEWMGDINPSNGRTSYKEKFKRRVTLSVDKSSSTAYMELSSLRSEDTAVYFCTIHYDDKYYPLMDYWGQGTLVTVSSASTKGPSVFPLAPCSRSTSESTAALGCLVKDYFPEPVTVSWNSGALTSGVHTFPAVLQSSGLYSLSSVVTVPSSNFGTQTYTCNVDHKPSNTKVDKTVERKCCVECPPCPAPPVAGPSVFLFPPKPKDTLMISRTPEVTCVVVDVSHEDPEVQFNWYVDGVEVHNAKTKPREEQFNSTFRVVSVLTVVHQDWLNGKEYKCKVSNKGLPAPIEKTISKTKGQPREPQVYTLPPSREKMTKNQVSLTCLVKGFYPSDIAVEWESNGQPENNYKTTPPMLKSDGSFFLYSKLTVDKSRWQQGNVFSCSVMHEALHNHYTQKSLSLSPGK
heavy 2: QVQLVQSGAEVKKPGASVKISCKASGYSFTAYYIHWVKQAPGQGLEWIGYIANYNRATNYNQKFKGRVTFTTDTSTSTAYMELRSLRSDDTAVYYCARDYDYDVGMDYWGQGTLVTVSSASTKGPSVFPLAPCSRSTSESTAALGCLVKDYFPEPVTVSWNSGALTSGVHTFPAVLQSSGLYSLSSVVTVPSSNFGTQTYTCNVDHKPSNTKVDKTVERKCCVECPPCPAPPVAGPSVFLFPPKPKDTLMISRTPEVTCVVVDVSHEDPEVQFNWYVDGVEVHNAKTKPREEQFNSTFRVVSVLTVVHQDWLNGKEYKCKVSNKGLPAPIEKTISKTKGQPREPQVYTLPPSREEMTKNQVSLTCLVEGFYPSDIAVEWESNGQPENNYKTTPPMLDSDGSFFLYSELTVDKSRWQQGNVFSCSVMHEALHNHYTQKSLSLSPGK
light: DIVMTQSPDSLAVSLGERATISCRASESVDNYGISFMKWFQQKPGQPPKLLIYAASNQGSGVPDRFSGSGSGTDFTLTISSLQAEDVAVYYCQQSKEVPWTFGGGTKVEIKRTVAAPSVIFPPSDEQLKSGTASVVCLLNNFYPREAKVQWKVDNALQSGNSQESVTEQDSKDSTYSLSSTLTLSKADYEKHKVYACEVTHQGLSSPVTKSFNRGEC
modifications: 21R79 Heavy chain without predicted signal sequence; Light chain without predicted signal sequence
B2: 219R45-MB-21M18: anti-VEGF/anti-DLL4 monovalent/bispecific antibody, heavy chains SEQ ID NO:7 and 5, light chains SEQ ID NO:8 (antibody)
heavy 1: B1 heavy 1
heavy 2: B1 heavy 2 with A52S, N53S, R56G
light: B1 light
modifications: 21R79 Heavy chain without predicted signal sequence; 21M18 Heavy chain without predicted signal sequence; Light chain without predicted signal sequence
B3: 21M18: anti-DLL4 antibody, parental antibody (Hoey et al., 2009; U.S. Pat. No. 7,750,124) (antibody, V domains shown)
VH: QVQLVQSGAEVKKPGASVKISCKASGYSFTAYYIHWVKQAPGQGLEWIGYISSYNGATNYNQKFKGRVTFTTDTSTSTAYMELRSLRSDDTAVYYCARDYDYDVGMDYWGQGTLVTVSS
VL: DIVMTQSPDSLAVSLGERATISCRASESVDNYGISFMKWFQQKPGQPPKLLIYAASNQGSGVPDRFSGSGSGTDFTLTISSLQAEDVAVYYCQQSKEVPWTFGGGTKVEIK

How the values were obtained:
[1] = system: VEGF-induced proliferation of HUVEC cells; assay: HUVEC proliferation assay; type: cell-based, human; conditions: hVEGF 5 ng/ml, Alamar Blue on day 7
Experimental: FIG. 3. Inhibition of VEGF-induced HUVEC proliferation by anti-VEGF/anti-DLL4 bispecific antibodies. Fluorescence intensity is read using an excitation wavelength of 530 nm and an emission wavelength of 590. 219R45-MB-21M18 (-●-); 219R45-MB-21R79 (-▴-); 219R45 (-▪-); Medium with no VEGF (-⋄-).
HUVEC cells were obtained from Lonza (Walkersville, Md.) and cultured in growth media (M199, 10% heat-inactivated FBS (HI-FBS), 50 μg/ml EGS, 1X heparin, 1 mM L-glutamine). For the HUVEC proliferation assay, a 96-well plate was pre-coated with 50 μl of 10 μg/ml rat tail collagen type I solution (collagen I in 0.02N acetic acid) and incubated at 4° C. overnight. After incubation, the plate was thoroughly aspirated to remove unbound collagen I solution and washed once with 200 μl DPBS. The HUVEC cells were removed from the surface of the growth flasks using an endothelial cell subclone reagent and centrifuged at 1200 rpm for 5 minutes at 4° C. The cells were resuspended in starvation/assay medium (M199 and 2% HI-FBS, 1× heparin, 5 U/ml heparin-glutamine) at a density of 10^5 cells/ml. The cells were seeded into the collagen-coated assay plate at 5000 cells/well, 50 ul/well. The cells were incubated for 3 hours at 37° C., washed one time, refed with 100 ul assay media, and incubated overnight at 37° C. The next day, bispecific antibodies 219R45-MB-21M18, 219R45-MB-21R79, parental antibody 219R45, or control antibody LZ1 were prepared in a mixture with human VEGF (R&D Biosystems, Minneapolis, Minn.). The antibodies were serially diluted 5-fold from […] to 0.25 nM in assay buffer in combination with hVEGF (final concentration 5 ng/ml). The mixture was pre-incubated at 37° C. for 2 hours. The medium was removed from the assay plate, and 100 μl of the antibody/hVEGF mixture was added to each well. […] The plate was read with a SpectraMax M5e Microplate reader (Molecular Devices, Sunnyvale CA) using a excitation wavelength of […] and an emission wavelength of 590 nm.

[2] = system: OMP-C8 colon tumor; assay: OMP-C8 colon tumor recurrence model; type: in vivo, NOD/SCID mice; conditions: 21M18, bevacizumab 7.5 mg/kg, bispecifics 15 mg/kg weekly ip; irinotecan 45 mg/kg for first four weeks
Experimental: FIG. 9. Inhibition of colon tumor growth by anti-VEGF/anti-DLL4 bispecific antibodies in tumor recurrence model. OMP-C8 colon tumor cells were injected subcutaneously in NOD/SCID mice. Mice were treated with control antibody (-▪-), anti-hDLL4 antibody 21M18 (-●-), anti-VEGF antibody bevacizumab (-▴-), a combination of 21M18 and bevacizumab (-▾-), anti-VEGF/anti-DLL4 bispecific antibody 219R45-MB-21M18 (-⋄-), or anti-VEGF/anti-DLL4 bispecific antibody 219R45-MB-21R79 (-∘-), all in combination with irinotecan. Antibodies 21M18 and bevacizumab were administered intraperitoneally at a dose of 7.5 mg/kg once a week, bispecific antibodies 219R45-MB-21M18 and 219R45-MB-21R79 were administered intraperitoneally at a dose of 15 mg/kg once a week, and irinotecan was administered for the first 4 weeks at a dose of 45 mg/kg. Data are shown as tumor volume (mm^3) over days post-treatment.
Single cell suspensions of OMP-C8 colon tumor xenografts (20,000 cells) were injected subcutaneously into the flanks of 6-8 week old NOD/SCID mice. […] Tumor growth was monitored and tumor volumes were measured with electronic calipers at the indicated time points. Data are expressed as mean±S.E.M.

[3] = system: OMP-C8 colon tumor cells; assay: Tumor growth in human skin graft model; type: in vivo, NOD-SCID mice; conditions: 25 mg/kg intraperitoneally once a week
Experimental: FIG. 5. Inhibition of colon tumor growth in vivo by an anti-VEGF/anti-DLL4 bispecific antibody. OMP-C8 colon tumor cells were injected subcutaneously into a human skin graft in NOD/SCID mice. Mice were treated with control antibody (-▪-), anti-hDLL4 antibody 21M18 (-▴-), anti-VEGF antibody bevacizumab (-∘-), or anti-VEGF/anti-DLL4 bispecific antibody 219R45-MB-21M18 (-▾-). Data is shown as tumor volume (photons/sec) over days post-treatment. Antibodies were administered intraperitoneally at a dose of 25 mg/kg once a week.
A human skin graft model has been reported which comprises a human skin graft and human tumor cells. A human skin graft is established and then human tumor cells are implanted into the skin graft, allowing the tumor cells to grow in an environment with human stroma and vasculature (Tahtis et al., 2003, Mol. Cancer Ther. 2:[…]). Human skin samples were obtained from neonatal foreskin tissue and grafted onto the lateral flank of NOD-SCID mice. After establishment of the skin graft, luciferase-labeled OMP-C8 colon tumor cells (20,000 cells) were injected intradermally into the human skin. Tumor growth was monitored by bioluminescence imaging using an IVIS imaging system (Caliper Life Sciences, Mountain View, Calif.). Tumors were allowed to grow until they reached 1.2×10^6 photons per second. Tumor-bearing mice (n=6 mice/group) were randomized and treated with control Ab, anti-hDLL4 antibody 21M18, anti-VEGF antibody bevacizumab, or anti-VEGF/anti-DLL4 bispecific antibody 219R45-MB-21M18. Animals were treated once a week and antibodies were administered intraperitoneally at a dose of 25 mg/kg. Tumor growth was monitored by bioluminescence imaging on the indicated days.

| Molecule | inhibition of VEGF-induced HUVEC proliferation [1] | inhibition of tumor regrowth after irinotecan was stopped [2] | inhibition of tumor growth (bioluminescence) [3] |
| --- | --- | --- | --- |
| B1 | inhibited HUVEC proliferation | – | – |
| B2 | inhibited HUVEC proliferation | more effective at inhibiting tumor regrowth than the mixture of the two antibodies | more effective than either the anti-DLL4 antibody or the anti-VEGF antibody alone |
| B3 | – | continued to inhibit tumor growth after treatment with irinotecan was stopped | inhibited tumor growth |

Source: US11512128B2, “VEGF/DLL4 binding agents and uses thereof” (MEREO BIOPHARMA 5, INC., priority 2011, dated 2022)
